Patent US20010010923A1, “MODIFIED CARBOXYPEPTIDASE” (priority 1997, published 2001)
Where a chain is given by its changes, count along the chain named. In names and notes the source's numbering stands. Entries after “also recorded” stand apart in the source; their conditions may differ. Marks after values point to notes of the source that are not given here.

B1: N51Q + M398L: carboxypeptidase Y mutant N51Q + M398L (protein, UniProt P00729 112-532, looked up, variant N51Q M398L)
Carboxypeptidase Y: KIKDPKILGIDPNVTQYTGYLDVEDEDKHFFFWTFESRNDPAKDPVILWLQGGPGCSSLTGLFFELGPSSIGPDLKPIGNPYSWNSNATVIFLDQPVNVGFSYSGSSGVSNTVAAGKDVYNFLELFFDQFPEYVNKGQDFHIAGESYAGHYIPVFASEILSHKDRNFNLTSVLIGNGLTDPLTQYNYYEPMACGEGGEPSVLPSEECSAMEDSLERCLGLIESCYDSQSVWSCVPATIYCNNAQLAPYQRTGRNVYDIRKDCEGGNLCYPTLQDIDDYLNQDYVKEAVGAEVDHYESCNFDINRNFLFAGDWMKPYHTAVTDLLNQDLPILVYAGDKDFICNWLGNKAWTDVLPWKYDEEFASQKVRNWTASITDEVAGEVKSYKHFTYLRVFNGGHLVPFDVPENALSMVNEWIHGGFSL
B2: M398E: carboxypeptidase Y S1' mutant, substitution M398E (protein, UniProt P00729 112-532, looked up, variant M398E)
Carboxypeptidase Y: B1 Carboxypeptidase Y with Q51N, L398E
B3: T60A: carboxypeptidase Y S1' mutant, substitution T60A (protein, UniProt P00729 112-532, looked up, variant T60A)
Carboxypeptidase Y: B1 Carboxypeptidase Y with Q51N, T60A, L398M
B4: M398Y: carboxypeptidase Y S1' mutant, substitution M398Y (protein, UniProt P00729 112-532, looked up, variant M398Y)
Carboxypeptidase Y: B1 Carboxypeptidase Y with Q51N, L398Y
B5: M398C: carboxypeptidase Y S1' mutant, substitution M398C (protein, UniProt P00729 112-532, looked up, variant M398C)
Carboxypeptidase Y: B1 Carboxypeptidase Y with Q51N, L398C
B6: T60L: carboxypeptidase Y S1' mutant, substitution T60L (protein, UniProt P00729 112-532, looked up, variant T60L)
Carboxypeptidase Y: B1 Carboxypeptidase Y with Q51N, T60L, L398M
B7: M398N: carboxypeptidase Y S1' mutant, substitution M398N (protein, UniProt P00729 112-532, looked up, variant M398N)
Carboxypeptidase Y: B1 Carboxypeptidase Y with Q51N, L398N
B8: T60V: carboxypeptidase Y S1' mutant, substitution T60V (protein, UniProt P00729 112-532, looked up, variant T60V)
Carboxypeptidase Y: B1 Carboxypeptidase Y with Q51N, T60V, L398M
B9: M398F: carboxypeptidase Y S1' mutant, substitution M398F (protein, UniProt P00729 112-532, looked up, variant M398F)
Carboxypeptidase Y: B1 Carboxypeptidase Y with Q51N, L398F
B10: T60M: carboxypeptidase Y S1' mutant, substitution T60M (protein, UniProt P00729 112-532, looked up, variant T60M)
Carboxypeptidase Y: B1 Carboxypeptidase Y with Q51N, T60M, L398M
B11: T60F + M398F: carboxypeptidase Y double substitution mutant T60F + M398F (protein, UniProt P00729 112-532, looked up, variant T60F M398F)
Carboxypeptidase Y: B1 Carboxypeptidase Y with Q51N, T60F, L398F
B12: T60W: carboxypeptidase Y S1' mutant, substitution T60W (protein, UniProt P00729 112-532, looked up, variant T60W)
Carboxypeptidase Y: B1 Carboxypeptidase Y with Q51N, T60W, L398M

assay: Transpeptidation of Bz-G-A-R-A-R-X-OH at pH 7.5 at 50% substrate consumption, Table 4; assay type: biochemical; design: key to fa: fraction: aminolysis product / sum of all products formed; details: leaving group A, 375 mM H-Leu-NH2
Experimental: (§1) Transamidation reactions were carried out generally as described in PCT Application WO 95/20039. In general, the method included dissolving the nucleophile (H-Leu-NH2, unless otherwise indicated) in 50 mM HEPES, 5 mM EDTA and adjusting the pH to 7.5, 5 μl of peptide substrate (8 mM Bz-G-A-R-A-R-A-OH, unless otherwise indicated, in methanol) was added to 190 μl nucleophile solution followed by 5 μl enzyme, resulting in a substrate concentration of 0.2 mM.
(§2) During the reaction, 20 μl aliquots were removed from the reaction mixture and added to 50 μl 1% trifluoroacetic acid to quench the reaction. The reactant composition was determined by HPLC using a Waters HPLC equipped with a C-18 Waters Novapac 4μ reverse phase column and various gradients of acetonitrile in 0.1% trifluoroacetic acid. The separation was monitored at 254 nm allowing the direct quantification of the products from the integrated peak areas. The composition of the reaction mixture was determined at least twvice during the reaction, the first when 20-50% (preferably 35%) of the substrate had been consumed in the reaction and the second time when 50-90% (preferably 80%) of the peptide substrate had been consumed.
(§3) The fraction of aminolysis (fa) was expressed as the ratio between the formed aminolysis product and the sum of all products formed. Unconsumed substrate was disregarded in the calculations.
Site specific mutagenesis was performed as described for Example 1 to generate the specific mutants described below. Transamidation reactions were performed as described for Examples 1.

Molecule	Pmax (peak product yield)
B1	>0.07

same assay, conditions: leaving group A, 50% substrate consumption, 375 mM H-Leu-NH2

Molecule	fa
B1	0.18

same assay, conditions: leaving group A, 50% substrate consumption, 375 mM H-Leu-NH2, 2 mM substrate, [E] 0.1 mg/mL

Molecule	t [min]
B1	3200

same assay, conditions: leaving group L, 375 mM H-Leu-NH2

Molecule	Pmax (peak product yield)
B1	>0.04

same assay, conditions: leaving group L, 50% substrate consumption, 375 mM H-Leu-NH2

Molecule	fa
B1	0.10

same assay, conditions: leaving group L, 50% substrate consumption, 375 mM H-Leu-NH2, 2 mM substrate, [E] 0.1 mg/mL

Molecule	t [min]
B1	3500

assay: Transpeptidation of FA-Ala-Xaa-OH with H-Gly-NH2, Table 2; assay type: biochemical; details: FA-Ala-Ala-OH 0.2 mM; 1.9 M H-Gly-NH2; pH 7.5; room temperature
Experimental: as §1, §2, §3
Site specific mutagenesis was performed as described for Example 1 to produce the S1 mutants used below.
Transamidation reactions were performed as described for Example 1.

Molecule	Fraction of aminolysis (fa), P1' Ala
B2	0.92
B3	0.91
B4	0.90
B5	0.93
B6	0.91
B7	0.92
B8	0.94
B9	0.87
B10	0.78
B11	0.86
B12	0.93

same assay, conditions: FA-Ala-Leu-OH 0.2 mM; 1.9 M H-Gly-NH2; pH 7.5; room temperature

Molecule	Fraction of aminolysis (fa), P1' Leu
B2	0.84
B3	0.32
B4	0.90
B5	0.75
B6	0.13
B7	0.36
B8	0.15
B9	0.85
B10	0.03
B11	0.86
B12	0.45

same assay, conditions: FA-Ala-Met-OH 0.2 mM; 1.9 M H-Gly-NH2; pH 7.5; room temperature

Molecule	Fraction of aminolysis (fa), P1' Met
B2	0.74
B3	0.16
B4	0.90
B5	0.65
B6	0.08
B7	0.70
B8	0.17
B9	0.86
B10	0.01
B11	0.82
B12	0.49

same assay, conditions: FA-Ala-Phe-OH 0.2 mM; 1.9 M H-Gly-NH2; pH 7.5; room temperature

Molecule	Fraction of aminolysis (fa), P1' Phe
B2	0.71
B3	0.12
B4	0.92
B5	0.64
B6	0.24
B7	0.11
B8	0.08
B9	0.85
B10	0.18
B11	0.66
B12	0.47

same assay, conditions: FA-Ala-Val-OH 0.2 mM; 1.9 M H-Gly-NH2; pH 7.5; room temperature

Molecule	Fraction of aminolysis (fa), P1' Val
B2	0.82
B3	0.44
B4	0.89
B5	0.52
B6	0.17
B7	0.52
B8	0.29
B9	0.83
B10	0.15
B11	0.73
B12	0.39

same assay, conditions: larger, hydrophobic leaving group such as leucine

Molecule	fraction of aminolysis compared to wild type, in words
B2	improvement in fraction of aminolysis obtained; also recorded: most dramatic improvement; also recorded: enhanced transpeptidation
B3	improvement in fraction of aminolysis obtained; also recorded: most effective at increasing the fraction of aminolysis
B4	improvement in fraction of aminolysis obtained; also recorded: most dramatic improvement; also recorded: enhanced transpeptidation
B5	improvement in fraction of aminolysis obtained; also recorded: most dramatic improvement; also recorded: enhanced transpeptidation
B7	improvement in fraction of aminolysis obtained; also recorded: enhanced transpeptidation
B9	improvement in fraction of aminolysis obtained; also recorded: most dramatic improvement; also recorded: enhanced transpeptidation
B11	further improved the fraction of aminolysis
B12	improvement in fraction of aminolysis obtained; also recorded: most effective at increasing the fraction of aminolysis

assay: Transpeptidation of FA-Ala-OBzl with H-Leu-NH2, Table 3; assay type: biochemical; details: FA-Ala-OBzl 0.2 mM; H-Leu-NH2; pH 7.5
Experimental: as §1, §2, §3
Site specific mutagenesis was performed as described in Example 1 to produce the specific substitution mutants described below. Transamidation reactions were performed as described for Example 1.
In table 3, below, KN(app) represents the nucleophile concentration at which fa is half of the maximum value (a measure for the dissociation constant of the nucleophile). famax is the highest possible fa obtained at saturation of the enzyme with the nucleophile.
KN(app) indicates the concentration at which famax/2 is reached and thus describes the apparent binding constant of the nucleophile. Because the competing hydrolysis reaction is thought to occur while the leaving group remains attached to the to the acyl-enzyme intermediate, a low KN(app) is preferred.

Molecule	fa
B2	0.97^a
B3	0.92^a
B4	0.78^b
B5	0.95^a
B6	1.0^b
B7	0.83^a
B8	0.97^a
B9	0.96^a
B10	0.98^b
B12	0.96^a

same assay, conditions: compared with wild type, Table 3

Molecule	change in famax and KN(app), in words
B2	increase in famax while decreasing KN(app)
B6	increase in both famax and KN(app)
B8	increase in both famax and KN(app)
B9	increase in both famax and KN(app)
B10	increase in both famax and KN(app)
B12	increase in both famax and KN(app)

same assay, conditions: nucleophile H-Leu-NH2 concentration at which fa is half of maximum; FA-Ala-OBzl 0.2 mM; pH 7.5

Molecule	KN(app)
B2	0.93^a mM
B4	5.2^c mM
B5	0.74^b mM
B7	1.2^c mM
B9	2.3^b mM
